Tests used:
[1] = target: human CD3 on human T cells (human) (UniProt P07766); experiment: flow cytometry competition on purified human T cells; competitor 2 ug/mL AF488-labelled SP34-2
[2] = target: human CD3 on human T cells (human) (UniProt P07766); experiment: saturation binding on human pan T cells, flow cytometry (KdT)
Human CD33-V-HSA (human) = experiment: SPRi off-rate screen (IBIS MX96)
[3] = target: Human CD33 ECD-HSA (human); experiment: SPRi off-rate screen (IBIS MX96)

Sequence of human CD3 on human T cells (human) (P07766 23-207 limits assumed): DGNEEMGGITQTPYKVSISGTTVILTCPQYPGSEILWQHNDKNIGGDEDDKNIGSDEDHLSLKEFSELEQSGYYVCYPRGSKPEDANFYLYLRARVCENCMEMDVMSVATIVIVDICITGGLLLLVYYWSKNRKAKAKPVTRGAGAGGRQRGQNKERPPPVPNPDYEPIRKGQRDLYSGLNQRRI

Row | IC50 (read off the curve) [1] | Kd [2] | koff (Human CD33-V-HSA (human)) | koff [3] | Substance
1 | 1 µg/mL | 5.6 nM | – | – | SP34-2, commercial mouse anti-human CD3 antibody
2 | – | – | 0.0378 s⁻¹ | 0.00237 s⁻¹ | WM53 (antibody)

— patent US20230322924A1
